Reference: US20120207760A1 (THERACLONE SCIENCES, published 2012)

Columns and labels:
[1] = target: T1, hemagglutinin (HA) of influenza A/Japan/305/57 H2N2 (Influenza A virus A/Japan/305/1957 …, UniProt P03451 16-562); test: ELISA, inactivated whole virions coated; transfection supernatant set 4
[2] = target: T2, hemagglutinin (HA) of influenza A/Solomon Islands/3/06 H1N1 (Influenza A virus A/Solomon …); test: as above
[3] = target: T2, hemagglutinin (HA) of influenza …; test: cell-based or functional assay
[4] = target: T1, hemagglutinin (HA) of influenza …; test: ELISA, inactivated whole virions coated; transfection supernatant set 5
[5] = target: T2, hemagglutinin (HA) of influenza …; test: as above
[6] = target: T1, hemagglutinin (HA) of influenza …; test: ELISA, inactivated whole virions coated; transfection supernatant set 3
[7] = target: T2, hemagglutinin (HA) of influenza …; test: as above
[8] = target: T1, hemagglutinin (HA) of influenza …; test: ELISA, inactivated whole virions coated; transfection supernatant set 1
[9] = target: T2, hemagglutinin (HA) of influenza …; test: as above
[10] = target: T1, hemagglutinin (HA) of influenza …; test: ELISA, inactivated whole virions coated; transfection supernatant set 2
[11] = target: T2, hemagglutinin (HA) of influenza …; test: as above
[12] = target: recombinant homotrimeric HA, A/South Carolina/1/18 H1N1 (Influenza A virus A/South Carolina/1/18 …); test: trimeric HA microarray, transfection set 5
[13] = target: recombinant homotrimeric HA, A/Wisconsin/67/05 H3N2 (Influenza A virus A/Wisconsin/67/05 …); test: trimeric HA microarray, transfection set 5
[14] = target: recombinant homotrimeric HA, A/Indonesia/5/05 H5N1 (Influenza A virus A/Indonesia/5/05 …); test: trimeric HA microarray, transfection set 5
[15] = target: recombinant homotrimeric HA, A/Japan/305/57 H2N2 (Influenza A virus A/Japan/305/57 (H2N2)); test: trimeric HA microarray, transfection set 5
[16] = target: recombinant homotrimeric HA, A/Vietnam/1203/04 H5N1 (Influenza A virus A/Vietnam/1203/04 …); test: trimeric HA microarray, transfection set 5
[17] = target: recombinant homotrimeric HA, A/swine/Ontario/01911-2/99 H4N6 (Influenza A virus …); test: trimeric HA microarray, transfection set 5
[18] = target: recombinant homotrimeric HA, A/California/4/09 H1N1 (Influenza A virus A/California/4/09 …); test: trimeric HA microarray, transfection set 5
[19] = target: recombinant homotrimeric HA, A/Solomon Islands/3/06 H1N1 (Influenza A virus A/Solomon …); test: trimeric HA microarray, transfection set 5
[20] = target: hemagglutinin (HA) on live influenza A virus A/Wisconsin/67/05 H3N2 (Influenza A virus A/Wisconsin/67/2005 …); test: cell-based or functional assay
[21] = target: hemagglutinin (HA) on live influenza A virus A/Solomon Islands/3/06 H1N1 (Influenza A virus A/Solomon …); test: cell-based or functional assay
[22] = target: hemagglutinin (HA) on live influenza A virus A/California/4/09 H1N1 (Influenza A virus A/California/04/2009 …); test: cell-based or functional assay
[23] = target: T3, M2 protein of A/Puerto Rico/8/34 (H1N1), on virus particles, infected MDCK cells or transfected cells (influenza A virus A/Puerto Rico/8/34 …, UniProt P06821 1-97); test: ELISA on purified A/Puerto Rico/8/34 virus (FIG. 14a)
T3 construct: whole, on cells

B1: TCN-536 (5095_N01) (antibody, V domains shown)
VH: QVQLQQWGAGLLKPSETLSLTCAVYGGSFSVSGYYWSWIRQPPGRGLEWIGEISHGGSTNYNPSLKSRVTISVDTTKNQFSLRLSSVTAADTAVYYCARGTDPDTEVYCRVGNCAAFDYWGQGSLVTVSS
VL: EIILAQSPGTLSLSPGERATLSCRASQFVSTRSLAWYQQRPGQAPRLLIYGASSRATGIPDRFSGSGSGTDFTLTISRLEPEDFAVYYCQHYGYSPRYAFGQGSKVEIK
OD450 [1]: 0.06 OD450 | OD450 [2]: 3.52 OD450 | % Neutralization [3]: 75%

B2: TCN-504 (3251_K17) (antibody, V domains shown)
VH: QVQLQESGPGLVKPSETLSLTCAVSGVSISNIDFYWGWIRQPPGKGLEWIGNIYYTGITFYNPSLSSRVAISIDTSKNQFSLTLTSVTAADTAMYYCARHYGDSEAINDAFDIWGQGTMLTVSS
VL: EIVMTQSPATLSVSPGERATLSCRASQSVGNSLAWYQQRPGQAPRLLIYGASTRATGIPPRFSGSGSGTEFTLTISSLQTEDFAVYYCQQYINWRPLSFGGGTKVEIK
OD450 [4]: 3.59 OD450 | OD450 [5]: 3.6 OD450 | OD450 [6]: 3.64 OD450 | OD450 [7]: 3.63 OD450 | OD450 [1]: 3.51 OD450 | OD450 [2]: 3.52 OD450 | OD450 [8]: 3.65 OD450 | OD450 [9]: 3.65 OD450 | OD450 [10]: 3.62 OD450 | OD450 [11]: 3.65 OD450

B3: TCN-556 (5089_K12) (antibody, V domains shown)
VH: QVQLVQSGAEVKKPGASVKVSCKASGYTFIGYDMHWVRQAPGQGLEWMGWINAKRGGTNYAQKFQGRVTMTRDTSISTAYMELNSLRSDDTAVYYCARGVGSRTTIFGVLNPEFDYWGQGTLVTVSS
VL: QSALTQPPSASGSPGQSVTISCTGSSSDVGGYDYVSWYQQHPGKAPKLLIYEVTKRPSGVPDRFSGSKSGNTASLTVSGLQAEDEADYYCSSYAGNYNHVFGPGTKVTVL
Trimeric HA Binding RLU [12]: 32700 RLU | Trimeric HA Binding RLU [13]: 44700 RLU | Trimeric HA Binding RLU [14]: 15200 RLU | Trimeric HA Binding RLU [15]: 22800 RLU | Trimeric HA Binding RLU [16]: 17400 RLU | Trimeric HA Binding RLU [17]: 19300 RLU | Trimeric HA Binding RLU [18]: 20900 RLU | Trimeric HA Binding RLU [19]: 23400 RLU

B4: TCN-535 (5246_P19) (antibody, V domains shown)
VH: QVQLVQSGSEVKKPGTSVKVSCTASGSVFTNYGISWVRQAPGQGLEWMGGIIPLFGAAKYAQKFQGRVTITADESTKTVYMELSRLTSKDTAIYFCAKAPRVYEYYFDQWGQGTPVTVSS
VL: EIVLTQSPGTLSLSPGERATLSCRASQSVSSSQLAWYQQKPGQAPRLIIYGASTRATGIPDRFSGSGSGTDFTLTIGRLEPEDFAVFFCQQYSTSPPTFGQGTKVDFK
OD450 [1]: 2.45 OD450 | OD450 [2]: 3.52 OD450 | % Neutralization [3]: 82%

B5: TCN-534 (5249_B02) (antibody, V domains shown)
VH: QVQLVQSGAEVKKPGSSVKVSCRESGGTFNGYTITWVRQAPGQGLEWMGGIIPMMGTVNYAQKLQGRVTITTDYFTKTAYMDLNNLRSEDTAMYYCVKIRYTGQQLLWGQGTLVTVSS
VL: DIQMTQSPSTLSASIGDRVTITCRASQSIASWLAWYQQKPGKAPKLLIYEAVNLESGVPSRFSGSGSGTDFTLTISSLQPDDFATYFCQHYGTISQTFGGGTKVEIK
OD450 [1]: 2.45 OD450 | OD450 [2]: 3.5 OD450 | % Neutralization [3]: 86%

B6: TCN-542 (5079_A16) (antibody, V domains shown)
VH: QVQLQESGPGLVKPSQTLSLTCTVSGGSISSGNYYWNWVRQHPGKGLEWIGYIYYRGSTFYNPSLKSRVTISIDTSKNQFSLRLSSVTAADTAVYYCAKDTRSSLDNYQYGMDVWGQGTTVTVSS
VL: QTVVTQEPSLTVSPGGTVTLTCASSTGAVTSSYFPNWFQQKPGQAPRPLIYSTTIRHSWTPARFSGSLLGGKAALTLSGVQPEDEADYYCLLYSGGDPVAFGGGTKLTVL
% Neutralization [20]: 8% | % Neutralization [21]: 99% | % Neutralization [22]: 15%

B7: TCN-523 (5248_A17) (antibody, V domains shown)
VH: QVQLVQSGAEVKKPGSSVKVSCKASGGSFSNYAFSWVRQAPGQGLEWMGGTIPLLGTTNYAQKFQGRVTISADQFTSTAYMELGSLRSEDTAVYYCTRRKMTTAFDSWGQGTLVTVSS
VL: QPVLTQPPSASASLGASVTLTCTLSSAYSNYKVDWYQQRPGKGPRFVMRVGTGGIVGSKGDGIPDRFSVLGSGLNRYLTIKNIQEEDESDYHCGADHGSGSNFVSPYVFGGGTKLTVL
OD450 [4]: 2.56 OD450 | OD450 [5]: 3.62 OD450 | OD450 [6]: 3.47 OD450 | OD450 [7]: 3.59 OD450 | OD450 [1]: 1.73 OD450 | OD450 [2]: 3.43 OD450 | % Neutralization [3]: 69% | OD450 [8]: 1.69 OD450 | OD450 [9]: 3.59 OD450 | OD450 [10]: 1.39 OD450 | OD450 [11]: 3.67 OD450

B8: TCN-032 (8I10) (antibody, V domains shown)
VH: QVQLQESGPGLVKPSETLSLTCTVSGSSISNYYWSWIRQSPGKGLEWIGFIYYGGNTKYNPSLKSRVTISQDTSKSQVSLTMSSVTAAESAVYFCARASCSGGYCILDYWGQGTLVTVSS
VL: DIQMTQSPSSLSASVGDRVTITCRASQNIYKYLNWYQQRPGKAPKGLISAASGLQSGVPSRFSGSGSGTDFTLTITSLQPEDFATYYCQQSYSPPLTFGGGTRVEIK
EC50 [23]: ~0.1 µg/mL

B9: TCN-560 (5084_P10) (antibody, V domains shown)
VH: EVQLVESGGGLVQPGGSLRLSCAASGFIFRNYWMSWVRQAPGKGLEWVANIKQDGREKYYVDSLRGRVNISRDNAENSLYLHMNSLRVEDTAVYFCARARMVVVTGDGFDVWGHGTMVTVSS
VL: DIQMTQSPSSLSASVGDRVTITCRASQNIKRYFNWYQQKPGKAPKLLIYAASNLENGVPSRFSGSGSGTDFTLTISSLQPEDFATYYCQQSFSKSWTFGQGTNVDIK
Trimeric HA Binding RLU [12]: 30500 RLU | Trimeric HA Binding RLU [13]: 55400 RLU | Trimeric HA Binding RLU [14]: 17000 RLU | Trimeric HA Binding RLU [15]: 25900 RLU | Trimeric HA Binding RLU [16]: 19500 RLU | Trimeric HA Binding RLU [17]: 16800 RLU | Trimeric HA Binding RLU [18]: 31100 RLU | Trimeric HA Binding RLU [19]: 22400 RLU

B10: TCN-546 (5089_L08) (antibody, V domains shown)
VH: QVQLQQWGAGLLKPSETLSLTCGVYGGSLSDYYWSWIRQPPGKGLEWIGEINHSGGTNYNPSLKRRVTISVDTSKKQFSLKMNSVTAADTAVYYCARGTDPDTEVYCRAGNCAAFDFWGQGTLVTVSS
VL: EIVLTQSPGTLSLSPGERATLSCRASHFVIGRAVAWYQQKPGQAPRLLIYGASSRATGIPDRFSGSGSGTDFTLTISRLETEDFAVFYCQHYGSSPRYAFGQGTKLEIK
% Neutralization [20]: 100% | % Neutralization [21]: 98% | % Neutralization [22]: 0%

B11: TCN-031 (23K12) (antibody, V domains shown)
VH: EVQLVESGGGLVQPGGSLRISCAASGFTVSSNYMSWVRQAPGKGLEWVSVIYSGGSTYYADSVKGRFSFSRDNSKNTVFLQMNSLRAEDTAVYYCARCLSRMRGYGLDVWGQGTTVTVSS
VL: DIQMTQSPSSLSASVGDRVTITCRTSQSISSYLNWYQQKPGKAPKLLIYAASSLQSGVPSRFSGSGSGTDFTLTISGLQPEDFATYYCQQSYSMPAFGQGTKLEIK
EC50 [23]: ~0.1 µg/mL
